In patent US20050215472A1:
“And” between values parts separate entries of the source, which are not always exact repeats. Equal entries are not always repeated.

Assays:
[1] = molecular target: prostate specific membrane antigen (PSMA), full-length human (human) (UniProt Q04609); experiment: cell-bound fraction of 111In mAb, average
[2] = molecular target: prostate specific membrane antigen (PSMA), full-length human (human) (UniProt Q04609); experiment: cell-bound fraction of 111In mAb, PSMA-3T3 cells
[3] = molecular target: prostate specific membrane antigen (PSMA), full-length human (human) (UniProt Q04609); experiment: cell-based or functional assay

prostate specific membrane antigen (PSMA), full-length human (human), sequence (Q04609 whole entry): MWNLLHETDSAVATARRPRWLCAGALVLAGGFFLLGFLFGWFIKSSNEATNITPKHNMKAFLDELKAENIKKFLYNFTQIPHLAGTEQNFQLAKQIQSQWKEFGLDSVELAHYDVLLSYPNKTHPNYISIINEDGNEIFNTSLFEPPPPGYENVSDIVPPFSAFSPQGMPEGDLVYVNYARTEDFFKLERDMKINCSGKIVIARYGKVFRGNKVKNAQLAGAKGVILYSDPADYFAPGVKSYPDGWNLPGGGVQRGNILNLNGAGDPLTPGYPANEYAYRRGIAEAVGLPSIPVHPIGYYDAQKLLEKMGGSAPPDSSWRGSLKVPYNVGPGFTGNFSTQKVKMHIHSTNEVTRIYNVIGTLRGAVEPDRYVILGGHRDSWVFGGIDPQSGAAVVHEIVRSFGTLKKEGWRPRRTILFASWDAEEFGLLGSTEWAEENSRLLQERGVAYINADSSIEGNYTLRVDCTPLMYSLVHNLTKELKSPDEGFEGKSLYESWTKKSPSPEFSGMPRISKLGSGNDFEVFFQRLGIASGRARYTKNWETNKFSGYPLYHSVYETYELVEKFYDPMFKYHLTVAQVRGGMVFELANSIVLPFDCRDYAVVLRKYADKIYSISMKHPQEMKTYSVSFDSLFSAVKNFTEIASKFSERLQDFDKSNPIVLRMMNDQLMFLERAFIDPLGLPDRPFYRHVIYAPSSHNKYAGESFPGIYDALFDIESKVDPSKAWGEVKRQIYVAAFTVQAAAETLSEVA

Row | Substance | Immunoreactivity (%), average [1] [%] | Immunoreactivity (%) [2] | LD50, immunotoxin (Mab-Zap saporin) cytotoxicity on C4-2 cells [3] [pM] | LD50, immunotoxin (Mab-Zap saporin) cytotoxicity on PSMA-3T3 cells [3] [pM]
1 | 111In radiolabeled CHX-A''-DTPA mJ591 (antibody) | 56.7 | 58.5% and 54.9% | – | –
2 | mAb J591 (antibody) | – | – | 88.2 | 89
